Source: patent US20090081195

Tested on: SLK (construct not stated)
Sequence (chain, as listed by the source): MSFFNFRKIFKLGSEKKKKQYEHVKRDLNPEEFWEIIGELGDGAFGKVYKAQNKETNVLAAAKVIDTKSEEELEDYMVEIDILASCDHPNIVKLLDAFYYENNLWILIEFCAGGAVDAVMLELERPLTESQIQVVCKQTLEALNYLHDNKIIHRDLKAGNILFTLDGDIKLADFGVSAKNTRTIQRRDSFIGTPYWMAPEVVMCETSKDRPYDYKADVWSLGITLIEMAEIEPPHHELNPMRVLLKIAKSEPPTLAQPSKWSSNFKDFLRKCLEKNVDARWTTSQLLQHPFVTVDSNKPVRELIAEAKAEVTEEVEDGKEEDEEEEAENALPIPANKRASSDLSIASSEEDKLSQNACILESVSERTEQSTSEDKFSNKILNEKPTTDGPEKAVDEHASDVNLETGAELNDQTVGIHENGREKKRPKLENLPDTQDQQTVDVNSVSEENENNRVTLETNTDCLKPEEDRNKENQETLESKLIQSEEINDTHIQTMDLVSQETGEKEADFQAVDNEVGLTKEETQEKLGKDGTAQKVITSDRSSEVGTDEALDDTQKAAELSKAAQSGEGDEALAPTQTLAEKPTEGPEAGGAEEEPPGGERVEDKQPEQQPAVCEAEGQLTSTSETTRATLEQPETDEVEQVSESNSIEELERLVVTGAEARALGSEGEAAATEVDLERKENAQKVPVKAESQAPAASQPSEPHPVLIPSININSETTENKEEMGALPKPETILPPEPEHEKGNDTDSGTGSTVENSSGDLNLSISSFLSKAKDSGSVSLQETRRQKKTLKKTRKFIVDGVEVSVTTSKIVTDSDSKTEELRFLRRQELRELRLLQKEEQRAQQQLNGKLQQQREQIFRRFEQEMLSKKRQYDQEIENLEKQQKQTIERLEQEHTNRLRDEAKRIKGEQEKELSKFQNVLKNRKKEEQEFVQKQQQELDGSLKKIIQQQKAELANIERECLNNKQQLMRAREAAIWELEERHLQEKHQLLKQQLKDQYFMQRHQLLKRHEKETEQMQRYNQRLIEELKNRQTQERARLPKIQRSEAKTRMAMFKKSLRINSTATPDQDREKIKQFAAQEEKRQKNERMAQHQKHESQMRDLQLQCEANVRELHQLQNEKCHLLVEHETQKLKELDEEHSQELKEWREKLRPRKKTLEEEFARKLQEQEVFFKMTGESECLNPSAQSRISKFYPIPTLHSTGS

nm23 (nucleoside diphosphate kinase; NDPK)
SLK activity in vitro (kinase assay, autophosphorylation): nm23 is not a substrate for SLK but rather inhibits its activity in vitro through direct interaction
